Source: patent US8785135B2, “Mutant G-protein coupled receptors and methods for selecting them” (Heptares Therapeutics Limited, priority 2007, dated 2014)

B1: S362A: NTR point mutant (protein, UniProt P20789 1-424, looked up, variant S362A)
Neurotensin receptor type 1: MHLNSSVPQGTPGEPDAQPFSGPQSEMEATFLALSLSNGSGNTSESDTAGPNSDLDVNTDIYSKVLVTAIYLALFVVGTVGNSVTAFTLARKKSLQSLQSTVHYHLGSLALSDLLILLLAMPVELYNFIWVHHPWAFGDAGCRGYYFLRDACTYATALNVASLSVERYLAICHPFKAKTLMSRSRTKKFISAIWLASALLAIPMLFTMGLQNRSGDGTHPGGLVCTPIVDTATVKVVIQVNTFMSFLFPMLVISILNTVIANKLTVMVHQAAEQGRVCTVGTHNGLEHSTFNMTIEPGRVQALRHGVLVLRAVVIAFVVCWLPYHVRRLMFCYISDEQWTTFLFDFYHYFYMLTNALFYVSAAINPILYNLVSANFRQVFLSTLACLCPGWRHRRKKRPTFSRKPNSMSSNHAFSTSATRETLY
B2: L109A: NTR point mutant (protein, UniProt P20789 1-424, looked up, variant L109A)
Neurotensin receptor type 1: MHLNSSVPQGTPGEPDAQPFSGPQSEMEATFLALSLSNGSGNTSESDTAGPNSDLDVNTDIYSKVLVTAIYLALFVVGTVGNSVTAFTLARKKSLQSLQSTVHYHLGSAALSDLLILLLAMPVELYNFIWVHHPWAFGDAGCRGYYFLRDACTYATALNVASLSVERYLAICHPFKAKTLMSRSRTKKFISAIWLASALLAIPMLFTMGLQNRSGDGTHPGGLVCTPIVDTATVKVVIQVNTFMSFLFPMLVISILNTVIANKLTVMVHQAAEQGRVCTVGTHNGLEHSTFNMTIEPGRVQALRHGVLVLRAVVIAFVVCWLPYHVRRLMFCYISDEQWTTFLFDFYHYFYMLTNALFYVSSAINPILYNLVSANFRQVFLSTLACLCPGWRHRRKKRPTFSRKPNSMSSNHAFSTSATRETLY
B3: T179A: NTR point mutant (protein, UniProt P20789 1-424, looked up, variant T179A)
Neurotensin receptor type 1: MHLNSSVPQGTPGEPDAQPFSGPQSEMEATFLALSLSNGSGNTSESDTAGPNSDLDVNTDIYSKVLVTAIYLALFVVGTVGNSVTAFTLARKKSLQSLQSTVHYHLGSLALSDLLILLLAMPVELYNFIWVHHPWAFGDAGCRGYYFLRDACTYATALNVASLSVERYLAICHPFKAKALMSRSRTKKFISAIWLASALLAIPMLFTMGLQNRSGDGTHPGGLVCTPIVDTATVKVVIQVNTFMSFLFPMLVISILNTVIANKLTVMVHQAAEQGRVCTVGTHNGLEHSTFNMTIEPGRVQALRHGVLVLRAVVIAFVVCWLPYHVRRLMFCYISDEQWTTFLFDFYHYFYMLTNALFYVSSAINPILYNLVSANFRQVFLSTLACLCPGWRHRRKKRPTFSRKPNSMSSNHAFSTSATRETLY
B4: F147A: NTR point mutant (protein, UniProt P20789 1-424, looked up, variant F147A)
Neurotensin receptor type 1: MHLNSSVPQGTPGEPDAQPFSGPQSEMEATFLALSLSNGSGNTSESDTAGPNSDLDVNTDIYSKVLVTAIYLALFVVGTVGNSVTAFTLARKKSLQSLQSTVHYHLGSLALSDLLILLLAMPVELYNFIWVHHPWAFGDAGCRGYYALRDACTYATALNVASLSVERYLAICHPFKAKTLMSRSRTKKFISAIWLASALLAIPMLFTMGLQNRSGDGTHPGGLVCTPIVDTATVKVVIQVNTFMSFLFPMLVISILNTVIANKLTVMVHQAAEQGRVCTVGTHNGLEHSTFNMTIEPGRVQALRHGVLVLRAVVIAFVVCWLPYHVRRLMFCYISDEQWTTFLFDFYHYFYMLTNALFYVSSAINPILYNLVSANFRQVFLSTLACLCPGWRHRRKKRPTFSRKPNSMSSNHAFSTSATRETLY
B5: W391A: NTR point mutant (protein, UniProt P20789 1-424, looked up, variant W391A)
Neurotensin receptor type 1: MHLNSSVPQGTPGEPDAQPFSGPQSEMEATFLALSLSNGSGNTSESDTAGPNSDLDVNTDIYSKVLVTAIYLALFVVGTVGNSVTAFTLARKKSLQSLQSTVHYHLGSLALSDLLILLLAMPVELYNFIWVHHPWAFGDAGCRGYYFLRDACTYATALNVASLSVERYLAICHPFKAKTLMSRSRTKKFISAIWLASALLAIPMLFTMGLQNRSGDGTHPGGLVCTPIVDTATVKVVIQVNTFMSFLFPMLVISILNTVIANKLTVMVHQAAEQGRVCTVGTHNGLEHSTFNMTIEPGRVQALRHGVLVLRAVVIAFVVCWLPYHVRRLMFCYISDEQWTTFLFDFYHYFYMLTNALFYVSSAINPILYNLVSANFRQVFLSTLACLCPGARHRRKKRPTFSRKPNSMSSNHAFSTSATRETLY
B6: S182A: NTR point mutant (protein, UniProt P20789 1-424, looked up, variant S182A)
Neurotensin receptor type 1: MHLNSSVPQGTPGEPDAQPFSGPQSEMEATFLALSLSNGSGNTSESDTAGPNSDLDVNTDIYSKVLVTAIYLALFVVGTVGNSVTAFTLARKKSLQSLQSTVHYHLGSLALSDLLILLLAMPVELYNFIWVHHPWAFGDAGCRGYYFLRDACTYATALNVASLSVERYLAICHPFKAKTLMARSRTKKFISAIWLASALLAIPMLFTMGLQNRSGDGTHPGGLVCTPIVDTATVKVVIQVNTFMSFLFPMLVISILNTVIANKLTVMVHQAAEQGRVCTVGTHNGLEHSTFNMTIEPGRVQALRHGVLVLRAVVIAFVVCWLPYHVRRLMFCYISDEQWTTFLFDFYHYFYMLTNALFYVSSAINPILYNLVSANFRQVFLSTLACLCPGWRHRRKKRPTFSRKPNSMSSNHAFSTSATRETLY
B7: F189A: NTR point mutant (protein, UniProt P20789 1-424, looked up, variant F189A)
Neurotensin receptor type 1: MHLNSSVPQGTPGEPDAQPFSGPQSEMEATFLALSLSNGSGNTSESDTAGPNSDLDVNTDIYSKVLVTAIYLALFVVGTVGNSVTAFTLARKKSLQSLQSTVHYHLGSLALSDLLILLLAMPVELYNFIWVHHPWAFGDAGCRGYYFLRDACTYATALNVASLSVERYLAICHPFKAKTLMSRSRTKKAISAIWLASALLAIPMLFTMGLQNRSGDGTHPGGLVCTPIVDTATVKVVIQVNTFMSFLFPMLVISILNTVIANKLTVMVHQAAEQGRVCTVGTHNGLEHSTFNMTIEPGRVQALRHGVLVLRAVVIAFVVCWLPYHVRRLMFCYISDEQWTTFLFDFYHYFYMLTNALFYVSSAINPILYNLVSANFRQVFLSTLACLCPGWRHRRKKRPTFSRKPNSMSSNHAFSTSATRETLY
B8: N262A: NTR point mutant (protein, UniProt P20789 1-424, looked up, variant N262A)
Neurotensin receptor type 1: MHLNSSVPQGTPGEPDAQPFSGPQSEMEATFLALSLSNGSGNTSESDTAGPNSDLDVNTDIYSKVLVTAIYLALFVVGTVGNSVTAFTLARKKSLQSLQSTVHYHLGSLALSDLLILLLAMPVELYNFIWVHHPWAFGDAGCRGYYFLRDACTYATALNVASLSVERYLAICHPFKAKTLMSRSRTKKFISAIWLASALLAIPMLFTMGLQNRSGDGTHPGGLVCTPIVDTATVKVVIQVNTFMSFLFPMLVISILNTVIAAKLTVMVHQAAEQGRVCTVGTHNGLEHSTFNMTIEPGRVQALRHGVLVLRAVVIAFVVCWLPYHVRRLMFCYISDEQWTTFLFDFYHYFYMLTNALFYVSSAINPILYNLVSANFRQVFLSTLACLCPGWRHRRKKRPTFSRKPNSMSSNHAFSTSATRETLY
B9: M293A: NTR point mutant (protein, UniProt P20789 1-424, looked up, variant M293A)
Neurotensin receptor type 1: MHLNSSVPQGTPGEPDAQPFSGPQSEMEATFLALSLSNGSGNTSESDTAGPNSDLDVNTDIYSKVLVTAIYLALFVVGTVGNSVTAFTLARKKSLQSLQSTVHYHLGSLALSDLLILLLAMPVELYNFIWVHHPWAFGDAGCRGYYFLRDACTYATALNVASLSVERYLAICHPFKAKTLMSRSRTKKFISAIWLASALLAIPMLFTMGLQNRSGDGTHPGGLVCTPIVDTATVKVVIQVNTFMSFLFPMLVISILNTVIANKLTVMVHQAAEQGRVCTVGTHNGLEHSTFNATIEPGRVQALRHGVLVLRAVVIAFVVCWLPYHVRRLMFCYISDEQWTTFLFDFYHYFYMLTNALFYVSSAINPILYNLVSANFRQVFLSTLACLCPGWRHRRKKRPTFSRKPNSMSSNHAFSTSATRETLY
B10: L256A: NTR point mutant (protein, UniProt P20789 1-424, looked up, variant L256A)
Neurotensin receptor type 1: MHLNSSVPQGTPGEPDAQPFSGPQSEMEATFLALSLSNGSGNTSESDTAGPNSDLDVNTDIYSKVLVTAIYLALFVVGTVGNSVTAFTLARKKSLQSLQSTVHYHLGSLALSDLLILLLAMPVELYNFIWVHHPWAFGDAGCRGYYFLRDACTYATALNVASLSVERYLAICHPFKAKTLMSRSRTKKFISAIWLASALLAIPMLFTMGLQNRSGDGTHPGGLVCTPIVDTATVKVVIQVNTFMSFLFPMLVISIANTVIANKLTVMVHQAAEQGRVCTVGTHNGLEHSTFNMTIEPGRVQALRHGVLVLRAVVIAFVVCWLPYHVRRLMFCYISDEQWTTFLFDFYHYFYMLTNALFYVSSAINPILYNLVSANFRQVFLSTLACLCPGWRHRRKKRPTFSRKPNSMSSNHAFSTSATRETLY
B11: Nag7n: NTR mutant F358A+H103A+I260A+F342A (protein)
chain: TSESDTAGPNSDLDVNTDIYSKVLVTAIYLALFVVGTVGNSVTAFTLARKKSLQSLQSTVAYHLGSLALSDLLILLLAMPVELYNFIWVHHPWAFGDAGCRGYYFLRDACTYATALNVASLSVERYLAICHPFKAKTLMSRSRTKKFISAIWLASALLAIPMLFTMGLQNRSGDGTHPGGLVCTPIVDTATVKVVIQVNTFMSFLFPMLVISILNTVAANKLTVMVHQAAEQGRVCTVGTHNGLEHSTFNMTIEPGRVQALRHGVLVLRAVVIAFVVCWLPYHVRRLMFCYISDEQWTTALFDFYHYFYMLTNALAYVSSAINPILYNLVSANFRQVFLSTLACLCPGWRHRRKKRPTFSRKPNSMSSNHAFSTSATRETLY

Test: Thermostability of NTR and mutants (3H-neurotensin binding)
Format: physicochemical
Conditions: for thermostability, 3H-neurotensin (agonist) binding after the heating step: heated in the absence of the agonist
Protocol: FIG. 12 Flow chart showing the two different assay formats of ligand (+) and ligand (−) used to determine receptor thermostability.
• 1. 340 site-directed mutants have been made between residues 61-400 of NTR. • 2. Initially, all of these mutants were assayed for thermostability using an assay measuring ^3H-neurotensin (agonist) binding after the heating step. […] Mutants tested for thermostability by heating in the absence of the agonist were re-tested using a slightly different assay where the mutants were heated in the presence of ^3H-neurotensin (Ligand(+) format in FIG. 12). […] All of these also have increased thermostability. • 5. Preferred combinations are • a. Nag7m F358A+A86L+I260A+F342A Tm 51° C. (neurotensin bound) • b. Nag7n F358A+H103A+I260A+F342A Tm 51° C. (neurotensin bound) • Wildtype NTR has a Tm of 35° C. with neurotensin bound.

Molecule	thermostability, heated in the presence of 3H-neurotensin (Ligand(+) format)	thermostability, 3H-neurotensin (agonist) binding after the heating step	Tm (neurotensin bound)
B1	improved thermostability	small but significant increase in thermostability	
B2		small but significant increase in thermostability	
B3		small but significant increase in thermostability	
B4		small but significant increase in thermostability	
B5		small but significant increase in thermostability	
B6		small but significant increase in thermostability	
B7		small but significant increase in thermostability	
B8		small but significant increase in thermostability	
B9		small but significant increase in thermostability	
B10		small but significant increase in thermostability	
B11			51 °C
